This note sets out measurements from patent US20250066422A1 (published 2025).

The target of this experiment is T1, HLA-A*0201 (human).
T1 construct: MHC monomer first loaded with a UV-sensitive peptide that is cleaved and exchanged for the test peptide; captured on streptavidin; also called peptide-receptive MHC molecules
Nature of the experiment: UV-ligand exchange, streptavidin/anti-b2m sandwich ELISA. From the text:
Candidate peptides for the vaccines according to the present invention were further tested for immunogenicity by in vitro priming assays. The individual peptide-MHC complexes required for these assays were produced by UV-ligand exchange, where a UV-sensitive peptide is cleaved upon UV-irradiation, and exchanged with the peptide of interest as analyzed. Only peptide candidates that can effectively bind and stabilize the peptide-receptive MHC molecules prevent dissociation of the MHC complexes. To determine the yield of the exchange reaction, an ELISA was performed based on the detection of the light chain (β2m) of stabilized MHC complexes.
96 well MAXISorp plates (NUNC) were coated over night with 2ug/ml streptavidin in PBS at room temperature, washed 4× and blocked for 30 min at 37° C. in 2% BSA containing blocking buffer. Refolded HLAA*0201/MLA-001 monomers served as standards, covering the range of 8-500 ng/ml. Peptide-MHC monomers of the UV-exchange reaction were diluted 100 fold in blocking buffer. Samples were incubated for 1 h at 37° C., washed four times, incubated with 2ug/ml HRP conjugated anti-β2m for 1 h at 37° C., washed again and detected with TMB solution that is stopped with […]. Absorption was measured at 450 nm.
For ILVSWLPRL (synthetic peptide from NET1) [NET1-001], the “Average exchange yield in %” value was found to be 82%.

Turning to KLLEYIEEI (synthetic peptide from HMMR) [HMMR-001], the “Average exchange yield in %” value was determined as 49%.

For the molecule TLISRLPAV (synthetic peptide from RCC1) [RCC1-001], the “Average exchange yield in %” value was determined as 77%.

With FQYDHEAFL (synthetic peptide from RCN1, RCN3) [RCN1-001], the “Average exchange yield in %” value is 75%.

Regarding HLLEDIAHV (synthetic peptide from NEFH) [NEFH-001], the “Average exchange yield in %” value was determined as 50%.

Turning to FLIPIYHQV (synthetic peptide from ACACA) [ACACA-001], the “Average exchange yield in %” value was found to be 61%.

Turning to GLYPDAFAPV (synthetic peptide from ELANE) [ELANE-001], the “Average exchange yield in %” value stood at 62%.

For the molecule VVDKTLLLV (synthetic peptide from C11orf24) [C11orf24-001], the “Average exchange yield in %” value came to 47%.

Take SLAPAGVIRV (synthetic peptide from TLX3) [TLX3-001]: the “Average exchange yield in %” value came out at 70%.

Consider SLIDADPYL (synthetic peptide from CCNA2) [CCNA2-001], for which the “Average exchange yield in %” value was determined as 54%.

YLPHAPPFA (synthetic peptide from JUNB) [JUNB-001]: the “Average exchange yield in %” value was 51%.

On to ALYGRLEVV (synthetic peptide from ANKS1A) [ANKS1A-001], for which the “Average exchange yield in %” value is 78%.

As for TVAEVIQSV (synthetic peptide from KIF26B) [KIF26B-001], the “Average exchange yield in %” value was found to be 68%.

As for SISDVIAQV (synthetic peptide from ANKH) [ANKH-001], the “Average exchange yield in %” value was 52%.

In the case of KVLEILHRV (synthetic peptide from HERC4) [HERC4-001], the “Average exchange yield in %” value is 61%.

SLAGDVALQQL (synthetic peptide from NCAPD2) [NCAPD2-001]: the “Average exchange yield in %” value worked out at 76%.

For KLFGEKTYL (synthetic peptide from SERPINB3) [SERPINB3-001], the “Average exchange yield in %” value amounted to 47%.

Regarding ALVDHTPYL (synthetic peptide from VCAN) [VCAN-002], the “Average exchange yield in %” value worked out at 49%.

As for NLLAEIHGV (synthetic peptide from DPYSL4) [DPYSL4-001], the “Average exchange yield in %” value worked out at 77%.

With SLHFLILYV (synthetic peptide from ATP2A1, ATP2A2) [ATP-001], the “Average exchange yield in %” value stood at 19%.

As to GLAEDIDKGEV (synthetic peptide from EEF2) [EEF2-002], the “Average exchange yield in %” value came out at 31%.

As for ALASVIKEL (synthetic peptide from IFT81) [IFT81-001], the “Average exchange yield in %” value is 57%.

SLLESNKDLLL (synthetic peptide from SLC3A2) [SLC3A2-001]: the “Average exchange yield in %” value came out at 56%.

For the molecule TVIGFLLPFA (synthetic peptide from P2RY6) [P2RY6-001], the “Average exchange yield in %” value was found to be 91%.

As for SLYDNQITTV (synthetic peptide from SLIT1, SLIT2) [SLI-001], the “Average exchange yield in %” value worked out at 47%.

AILDTLYEV (synthetic peptide from PLEKHA8) [PLEKHA8-001]: the “Average exchange yield in %” value was found to be 47%.

Turning to SLLAQNTSWLL (synthetic peptide from THY1) [THY1-001], the “Average exchange yield in %” value turned out to be 65%.

For ALANQKLYSV (synthetic peptide from MDN1) [MDN1-001], the “Average exchange yield in %” value was 67%.

With ILFPDIIARA (synthetic peptide from MAGEF1) [MAGEF1-001], the “Average exchange yield in %” value is 83%.

In the case of ILMGTELTQV (synthetic peptide from OLFM1) [OLFM1-001], the “Average exchange yield in %” value stood at 48%.

For SLWGGDVVL (synthetic peptide from VPS13B) [VPS13B-001], the “Average exchange yield in %” value turned out to be 63%.

In the case of AMFENFVSV (synthetic peptide from NCBP1) [NCBP1-001], the “Average exchange yield in %” value was 65%.

Consider FLHHLEIEL (synthetic peptide from ITGA11) [ITGA11-001], for which the “Average exchange yield in %” value amounted to 53%.

On to YLAPFLRNV (synthetic peptide from CNOT1) [CNOT1-001], for which the “Average exchange yield in %” value is 57%.

Consider ALYDSVILL (synthetic peptide from DIO2) [DIO2-001], for which the “Average exchange yield in %” value came to 50%.

For ILQDRLNQV (synthetic peptide from CDC6) [CDC6-001], the “Average exchange yield in %” value was determined as 48%.

Take KIYNEFISV (synthetic peptide from RGS4) [RGS4-001]: the “Average exchange yield in %” value was 49%.

Regarding ALWEKNTHL (synthetic peptide from CEP250) [CEP250-002], the “Average exchange yield in %” value came to 70%.

RVLPPSALQSV (synthetic peptide from AURKB) [AURKB-001]: the “Average exchange yield in %” value is 54%.

Regarding KLSWDLIYL (synthetic peptide from CERCAM) [CERC-001], the “Average exchange yield in %” value was determined as 62%.

With VLAPLFVYL (synthetic peptide from FZD1, FZD2, FZD7) [FZD-001], the “Average exchange yield in %” value was found to be 52%.

Consider TLTNIIHNL (synthetic peptide from ORMDL1) [ORMDL1-002], for which the “Average exchange yield in %” value stood at 61%.

As to AMLAVLHTV (synthetic peptide from C12orf44) [C12orf44-001], the “Average exchange yield in %” value was 34%.

Regarding VLSVVEVTL (synthetic peptide from RNF213) [RNF213-001], the “Average exchange yield in %” value turned out to be 84%.

For AMATESILHFA (synthetic peptide from PI4KA) [PI4KA-001], the “Average exchange yield in %” value came to 51%.

In the case of SILTIEDGIFEV (synthetic peptide from HSPA2, HSPA8) [HSP-002], the “Average exchange yield in %” value is 47%.

As for SLVAVELEKV (synthetic peptide from COG4) [COG4-001], the “Average exchange yield in %” value was 57%.

For the molecule VLLPVEVATHYL (synthetic peptide from SLC34A2) [SLC34A2-001], the “Average exchange yield in %” value was determined as 51%.
